The target in the test is insulin-like growth factor-1 receptor (IGF-1R) on MCF-7 cells (human (endogenous in MCF-7)) (UniProt P08069).
Sequence of UniProt P08069 (P08069 31-1367): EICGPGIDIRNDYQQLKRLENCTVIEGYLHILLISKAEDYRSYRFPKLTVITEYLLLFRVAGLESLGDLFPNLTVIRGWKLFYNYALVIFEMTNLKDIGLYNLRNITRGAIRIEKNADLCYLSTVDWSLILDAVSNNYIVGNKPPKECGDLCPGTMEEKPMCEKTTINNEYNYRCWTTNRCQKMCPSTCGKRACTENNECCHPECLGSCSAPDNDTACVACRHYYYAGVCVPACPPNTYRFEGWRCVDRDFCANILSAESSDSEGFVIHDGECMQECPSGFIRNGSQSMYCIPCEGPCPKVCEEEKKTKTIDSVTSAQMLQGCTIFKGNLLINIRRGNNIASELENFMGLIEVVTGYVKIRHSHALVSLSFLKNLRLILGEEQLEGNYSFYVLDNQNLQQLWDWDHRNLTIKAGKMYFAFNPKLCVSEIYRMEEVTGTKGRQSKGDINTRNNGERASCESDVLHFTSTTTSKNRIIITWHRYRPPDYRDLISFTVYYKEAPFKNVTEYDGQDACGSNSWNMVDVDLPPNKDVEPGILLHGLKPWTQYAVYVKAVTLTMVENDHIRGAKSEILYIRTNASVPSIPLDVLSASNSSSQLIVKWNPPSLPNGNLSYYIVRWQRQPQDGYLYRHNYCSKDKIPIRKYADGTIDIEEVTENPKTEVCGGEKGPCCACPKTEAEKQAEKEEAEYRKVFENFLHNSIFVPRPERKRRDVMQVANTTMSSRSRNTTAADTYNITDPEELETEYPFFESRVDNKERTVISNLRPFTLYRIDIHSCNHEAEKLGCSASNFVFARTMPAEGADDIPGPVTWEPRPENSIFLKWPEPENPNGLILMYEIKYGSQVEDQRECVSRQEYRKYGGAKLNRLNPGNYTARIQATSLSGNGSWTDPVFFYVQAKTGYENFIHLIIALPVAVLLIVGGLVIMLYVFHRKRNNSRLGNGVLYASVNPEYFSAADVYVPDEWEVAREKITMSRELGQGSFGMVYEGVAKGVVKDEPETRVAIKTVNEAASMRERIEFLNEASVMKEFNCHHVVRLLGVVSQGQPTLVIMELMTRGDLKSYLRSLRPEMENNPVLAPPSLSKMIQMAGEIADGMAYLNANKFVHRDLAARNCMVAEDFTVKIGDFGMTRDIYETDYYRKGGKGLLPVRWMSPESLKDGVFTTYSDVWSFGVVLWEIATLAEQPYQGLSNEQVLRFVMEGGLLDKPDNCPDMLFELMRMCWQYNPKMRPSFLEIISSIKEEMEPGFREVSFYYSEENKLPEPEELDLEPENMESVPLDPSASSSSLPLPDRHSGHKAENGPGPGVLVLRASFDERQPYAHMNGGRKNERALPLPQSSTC

Sequence of recombinant human vimentin (P08670 whole entry): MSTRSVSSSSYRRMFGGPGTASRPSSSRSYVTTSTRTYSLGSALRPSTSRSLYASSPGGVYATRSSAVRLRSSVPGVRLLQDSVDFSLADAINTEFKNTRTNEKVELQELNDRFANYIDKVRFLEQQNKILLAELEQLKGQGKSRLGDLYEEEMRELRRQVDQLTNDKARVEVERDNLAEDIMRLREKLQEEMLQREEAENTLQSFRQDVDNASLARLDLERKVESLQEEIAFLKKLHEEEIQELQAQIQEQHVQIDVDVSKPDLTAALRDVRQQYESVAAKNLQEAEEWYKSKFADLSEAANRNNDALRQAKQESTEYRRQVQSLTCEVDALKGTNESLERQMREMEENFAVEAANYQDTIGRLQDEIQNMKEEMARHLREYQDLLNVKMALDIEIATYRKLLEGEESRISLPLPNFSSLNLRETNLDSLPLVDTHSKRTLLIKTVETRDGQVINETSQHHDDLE

On to “recombinant human vimentin (from UniProt P08670 1-466) (natural protein)”, for which the MTT proliferation of MCF-7 cells treated with recombinant human vimentin (0, 50, 100, 200 ng/mL), 72 h; value printed for 100 ng/mL is greater than 20%.
